This is an account of results in publication PMC8831599, “Defining molecular glues with a dual-nanobody cannabidiol sensor” (Nature Communications, 2022).

Experiment [1] addresses Biotin-DB21 (biotinylated Avi-DB21). Briefly: BLI; biotinylated DB21 on streptavidin probe, tag-free CA14 as analyte, no CBD; 30 °C; 25 mM HEPES pH 7.4, 100 mM NaCl, no TCEP, 0.1% Tween-20, 0.05 mg/mL BSA; kinetic and steady-state analysis differ.
Experiment [2] has the same target. Description: AlphaScreen or HTRF; competition without CBD: 200 nM His-CA14 on acceptor beads, 67 nM biotinylated DB21 (wild type or mutant) on streptavidin donor beads, label-free protein titrated; 25 mM HEPES pH 7.4, 100 mM NaCl, no TCEP, 0.1% Tween-20, 0.05 mg/mL BSA. Background: Alpha assays give light when donor and acceptor beads are brought close together.

B1: CA14 anchor binder nanobody, tag-free (VHH)
VHH: EVQLQASGGGFVQPGGSLRLSCAASGSTSRQYDMGWFRQAPGKEREFVSAISSNQDQPPYYADSVKGRFTISRDNSKNTVYLQMNSLRAEDTATYYCAFKQHHANGAYWGQGTQVTVSS
The Kd is the constant that tells how readily two partners part at equilibrium. A low value points to higher affinity. The term IC50 denotes the midpoint of a concentration-inhibition curve. A lower IC50 goes with greater potency. On to B1, for which, in experiment [1], the Kd was 19 µM and the Kd determined by kinetics was 3 µM. In experiment [2], this molecule registered an IC50 of 20 µM.
